In article PMC7215387, “Comparison of Target Recognition by TRAF1 and TRAF2” (International Journal of Molecular Sciences, 2020):

Legend:
TRAF1 = molecular target: T1, TRAF1 (Homo sapiens, UniProt Q13077); assay: Complex formation assay by gel-filtration (size-exclusion) chromatography with TRAF1; format: binding; conditions: Superdex 200 10/30, 20 mM Tris pH 8.0, 150 mM NaCl; 1 h at 4 °C; peak shift approximately 16 mL
T1 construct: the TRAF1 TRAF domain (amino acid residues 220-416); 6xHis (C); made in house; host or cells: E. coli BL21 (DE3)
T1 sequence (Q13077 220-416): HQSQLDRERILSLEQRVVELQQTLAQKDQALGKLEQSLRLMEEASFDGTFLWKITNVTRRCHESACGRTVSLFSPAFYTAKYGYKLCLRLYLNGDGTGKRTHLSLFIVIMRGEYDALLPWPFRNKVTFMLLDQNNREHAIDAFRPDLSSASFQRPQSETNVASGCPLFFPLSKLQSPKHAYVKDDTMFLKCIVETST
Text: (§1) TRADD is a well-known regulator of the TRAF function. The death domain located at the C-terminus of TRADD interacts with death-domain containing receptors and adaptor proteins including TNFR, receptor interacting protein 1 (RIP1) and Fas-associated death domain protein (FADD), while the N-terminal domain of TRADD (TRADD-N) interacts with the TRAF domain of TRAF2 (Figure 2a). Although several indirect interactions between TRAF1 and TRADD have been described, a direct interaction and direct analyses between TRAF1 and TRADD have not been reported. To directly study their interactions and binding properties, which may provide important clues for understanding TRAF-mediated signaling by TRADD, TRAFs and TRADD-N were purified, and initial interaction testing was performed by Native-PAGE. […] Although TRAF1 did interact with TRADD-N, this interaction was not as tight as with TRAF2 (Figure 2b). To further confirm this association, the interaction between the TRAFs and TRADD-N was further tested by size-exclusion chromatography. […]
Purified TRAF domains and TRADD-N proteins were mixed, incubated at 4 °C for 1 h, and concentrated to 4 to 5 mg/mL using a protein concentration kit (Millipore). […] Complex assembly was evaluated based on the positions of eluted protein peaks monitored at 280 nm followed by SDS-PAGE.

TRAF2 = molecular target: T2, TRAF2 (Homo sapiens, UniProt Q12933); assay: Native-PAGE complex formation with TRAF2; format: binding; conditions: 8% to 25% acrylamide gradient gels, Coomassie; 1 h at 4 °C; TRAF2 TRAF domain (305-501)
T2 construct: TRAF2 TRAF domain (amino acid residues 305-501); 6xHis (C); made in house; host or cells: E. coli BL21 (DE3)
T2 sequence (Q12933 305-501): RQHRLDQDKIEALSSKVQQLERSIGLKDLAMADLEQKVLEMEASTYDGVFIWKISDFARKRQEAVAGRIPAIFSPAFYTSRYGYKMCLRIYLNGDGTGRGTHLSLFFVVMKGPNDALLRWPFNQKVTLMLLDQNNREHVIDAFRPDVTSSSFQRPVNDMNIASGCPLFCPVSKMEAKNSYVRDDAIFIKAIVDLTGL
Text: as §1
The formation of complexes was assayed by native (non-denaturing) PAGE conducted on a PhastSystem (GE Healthcare) with pre-cast 8% to 25% acrylamide gradient gels (GE Healthcare). […] Complex formation was evaluated based on the appearance of newly formed bands or the disappearance of bands that were detected in single control protein bands.

B1: TRADD-N: N-terminal domain of TRADD (TRADD-N, amino acid residues 1-163) (protein)
chain: MAAGQNGHEEWVGSAYLFVESSLDKVVLSDAYAHPQQKVAVYRALQAALAESGGSPDVLQMLKIHRSDPQLIVQLRFCGRQPCGRFLRAYREGALRAALQRSLAAALAQHSVPLQLELRAGAERLDALLADEERCLSCILAQQPDRLRDEELAELEDALRNLK
modifications: left off: His6 (from the vector pET24a), C-terminal, state not stated
With B1 the “co-migration with TRAF1 in size-exclusion chromatography / SDS-PAGE” value (TRAF1) was “TRADD-N did not perfectly co-migrate with TRAF1” and the “Native-PAGE band change on incubation with TRAF2” value (TRAF2) was “the TRADD-N band was completely absent, forming a new complex band”.
